In publication PMC4027167, “The histone chaperones Vps75 and Nap1 form ring-like, tetrameric structures in solution” (Nucleic Acids Research, 2014):
Substitutions are numbered along the chain they refer to. Names and notes keep the numbering of the source. Values belong to the molecule of their own block, whether it stands above or below them.

Experiments:
[1] = target: Vps75, full-length (budding yeast) (UniProt P53853); experiment: SEC-MALS; 500 mM NaCl, 20 mM HEPES-KOH pH 7.5; MAbPac SEC-1 column (Figure 1) or Superdex S200 10/300 (Figure 7)
[2] = target: Vps75 Y35C dimers labelled with Maleimide-PEG2-Biotin (budding yeast) (UniProt P53853); experiment: BLI; biotinylated chaperone dimers on streptavidin biosensors, unlabelled wild-type chaperone in solution; 150 mM NaCl, 20 mM HEPES.KOH pH 7.5, 0.1% BSA; steady state, one site saturation fit; two dimers to tetramer
[3] = target: Vps75, full-length (budding yeast) (UniProt P53853); experiment: SAXS; 150 mM NaCl, 0.5 to 10 mg/ml, 10°C
[4] = target: Vps75, full-length (budding yeast) (UniProt P53853); experiment: SAXS; 500 mM NaCl, 0.5 to 10 mg/ml, 10°C
[5] = target: Vps75, full-length (budding yeast) (UniProt P53853); experiment: SEC-MALS; 150 mM NaCl, 20 mM HEPES-KOH pH 7.5; MAbPac SEC-1 column (Figure 1) or Superdex S200 10/300 (Figures 5 and 7)
[6] = target: Nucleosome Assembly Protein 1 (Nap1) (budding yeast) (UniProt P25293); experiment: SEC-MALS; 500 mM NaCl, 20 mM HEPES-KOH pH 7.5; MAbPac SEC-1 column (Figure 1) or Superdex S200 10/300 (Figure 7)
[7] = target: Nap1 L120C dimers labelled with Maleimide-PEG2-Biotin (budding yeast) (UniProt P25293); experiment: BLI; biotinylated chaperone dimers on streptavidin biosensors, unlabelled wild-type chaperone in solution; 150 mM NaCl, 20 mM HEPES.KOH pH 7.5, 0.1% BSA; steady state, one site saturation fit; two dimers to tetramer
[8] = target: Nucleosome Assembly Protein 1 (Nap1) (budding yeast) (UniProt P25293); experiment: SEC-MALS; 150 mM NaCl, 20 mM HEPES-KOH pH 7.5; MAbPac SEC-1 column (Figure 1) or Superdex S200 10/300 (Figures 5 and 7)
[9] = target: Vps75 lacking the unstructured C-terminal domain (residues 1–223) (budding yeast) (UniProt P53853); experiment: SEC-MALS; 500 mM NaCl, 20 mM HEPES-KOH pH 7.5; MAbPac SEC-1 column (Figure 1) or Superdex S200 10/300 (Figure 7)
[10] = target: Vps75 lacking the unstructured C-terminal domain (residues 1–223) (budding yeast) (UniProt P53853); experiment: SAXS; 500 mM NaCl, 0.5 to 10 mg/ml, 10°C
[11] = target: Vps75 lacking the unstructured C-terminal domain (residues 1–223) (budding yeast) (UniProt P53853); experiment: SEC-MALS; 150 mM NaCl, 20 mM HEPES-KOH pH 7.5; MAbPac SEC-1 column (Figure 1) or Superdex S200 10/300 (Figures 5 and 7)
[12] = target: the molecule itself; experiment: as above
[13] = target: the molecule itself; experiment: PELDOR; spin-labelled protein, 100–150 μM dimer, 150 mM NaCl, 20 mM HEPES-KOH pH 7.5 in deuterium oxide, mixed 1:1 with D8-glycerol; tetrameric conditions
[14] = target: the molecule itself; experiment: PELDOR; spin-labelled protein, 100–150 μM dimer, 500 mM NaCl, 20 mM HEPES-KOH pH 7.5 in deuterium oxide, mixed 1:1 with D8-glycerol; dimeric conditions
[15] = target: the molecule itself; experiment: SEC-MALS; run at 500 mM NaCl after disulphide cross-linking via K78C at 150 mM NaCl
Rtt109 = target: T1, Rtt109 (UniProt Q07794 1-436); experiment: PELDOR; 100 μM Vps75 Y35RX2 dimer with Rtt109 at ratios 2:0, 2:0.25, 2:0.5 and 2:1 (Vps75:Rtt109); conditions: both partners purified
T1 construct: expressed from a pET28a-derived vector, a gift from Paul Kaufman; also called histone acetyltransferase Rtt109
T1 sequence: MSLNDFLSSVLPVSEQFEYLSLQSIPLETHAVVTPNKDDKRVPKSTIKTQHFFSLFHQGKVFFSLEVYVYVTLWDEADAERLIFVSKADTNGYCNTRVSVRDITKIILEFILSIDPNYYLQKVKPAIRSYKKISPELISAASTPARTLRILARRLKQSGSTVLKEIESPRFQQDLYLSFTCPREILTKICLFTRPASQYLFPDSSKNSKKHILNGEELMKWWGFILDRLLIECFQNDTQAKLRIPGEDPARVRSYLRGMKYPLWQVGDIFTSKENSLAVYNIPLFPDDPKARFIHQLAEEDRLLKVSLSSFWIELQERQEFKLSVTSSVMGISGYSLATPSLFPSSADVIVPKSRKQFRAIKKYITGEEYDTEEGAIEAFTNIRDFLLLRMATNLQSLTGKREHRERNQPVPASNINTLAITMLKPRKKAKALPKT

[16] = target: the molecule itself; experiment: as above

stoichiometry N [1]: 2
Kd [2]: 600 nM
stoichiometry N [3]: 4
stoichiometry N [4]: 2
stoichiometry N [5]: 4
Molecule: Vps75, full-length (from UniProt P53853 1-264) (natural protein)

stoichiometry N [6]: 2
Kd [7]: 3.57 µM
stoichiometry N [8]: 4
Molecule: Nucleosome Assembly Protein 1 (Nap1) (from UniProt P25293 1-417) (natural protein)

stoichiometry N [9]: 2
stoichiometry N [10]: 2
stoichiometry N [11]: 4
Molecule: Vps75 lacking the unstructured C-terminal domain (residues 1–223) (from UniProt P53853 1-223) (domain or fragment)

B1: Nap1 PPP mutant (R301P, T302P, K305P) (natural protein)
chain: MSDPIRTKPKSSMQIDNAPTPHNTPASVLNPSYLKNGNPVRAQAQEQDDKIGTINEEDILANQPLLLQSIQDRLGSLVGQDSGYVGGLPKNVKEKLLSLKTLQSELFEVEKEFQVEMFELENKFLQKYKPIWEQRSRIISGQEQPKPEQIAKGQEIVESLNETELLVDEEEKAQNDSEEEQVKGIPSFWLTALENLPIVADTITDRDAEVLEYLQDIGLEYLTDGRPGFKLLFRFDSSANPFFTNDILAKTYFYQKELGYSGDFIYDHAEGAEISWKDNAHNVTVDLEMRKQRNKTTKQVPPIEPITPIESFFNFFDPPKIQNEDQDEELEEDLEERLALDYSIGEQLKDKLIPRAVDWFTGAALEFEFEEDEEEADEDEDEEEDDDHGLEDDDGESAEEQDDFAGRPEQAPEAKQS
stoichiometry N [12]: ~2

B2: Nap1 E209R1 (natural protein, budding yeast, UniProt P25293 1-417, looked up)
chain: B1 chain with E209C, P301R, P302T, P305K
modifications: MTSL spin label (R1) on cysteine 209; deuterated protein
notes: Nap1 of budding yeast, open reading frame, unique cysteine at position 209; also called Nap1 E209C; not shown: His6, N-terminal, cleaved
stoichiometry N [13]: 4
stoichiometry N [14]: 2

B3: Nap1 T251R1 (natural protein, budding yeast, UniProt P25293 1-417, looked up)
chain: B1 chain with T251C, P301R, P302T, P305K
modifications: MTSL spin label (R1) on cysteine 251; deuterated protein
notes: Nap1 of budding yeast, open reading frame, unique cysteine at position 251; also called Nap1 T251C; not shown: His6, N-terminal, cleaved
stoichiometry N [13]: 4
stoichiometry N [14]: 2

B4: Nap1 T307R1 (natural protein, budding yeast, UniProt P25293 1-417, looked up)
chain: B1 chain with P301R, P302T, P305K, T307C
modifications: MTSL spin label (R1) on cysteine 307; deuterated protein
notes: Nap1 of budding yeast, open reading frame, unique cysteine at position 307; also called Nap1 T307C; not shown: His6, N-terminal, cleaved
stoichiometry N [13]: 4
stoichiometry N [14]: 2

B5: Vps75 K117R1 (natural protein, budding yeast, UniProt P53853 1-264, looked up)
chain: MMSDQENENEHAKAFLGLAKAEEEVDAIEREVELYRLNKMKPVYEKRDAYIDEIAEFWKIVLSQHVSFANYIRASDFKYIDTIDKIKVEWLALESEMYDTRDFSITFHFHGIEGDFCEQQVTKVFQIKKGKDDQEDGILTSEPVPIEWPQSYDSINPDLIKDKRSPEGKKKYRQGMKTIFGWFRWTGLKPGKEFPHGDSLASLFSEEIYPFAVKYYAEAQRDLEDEEGESGLSADGDSEDDDGSLGEVDLPLSDEEPSSKKRKV
modifications: MTSL spin label (R1) on cysteine 117; deuterated protein
notes: Vps75 of budding yeast, open reading frame, unique cysteine at position 117; also called Vps75 K117C; not shown: His6, N-terminal, cleaved
stoichiometry N [13]: 4

B6: Vps75 E56R1 (natural protein, budding yeast, UniProt P53853 1-264, looked up)
chain: B5 chain with E56C, C117K
modifications: MTSL spin label (R1) on cysteine 56; deuterated protein
notes: Vps75 of budding yeast, open reading frame, unique cysteine at position 56; also called Vps75 E56C; not shown: His6, N-terminal, cleaved
stoichiometry N [13]: 4

B7: Vps75 K170E (natural protein, budding yeast, UniProt P53853 1-264, looked up)
chain: B5 chain with C117K, K170E
notes: Vps75 of budding yeast, point mutant in the C21A/C212A construct
stoichiometry N [12]: ~2

B8: Vps75 triple mutant protein (R164D, K169E, K170E) (natural protein, budding yeast, UniProt P53853 1-264, looked up)
chain: B5 chain with C117K, R164D, K169E, K170E
notes: Vps75 of budding yeast, mutant in the C21A/C212A construct
stoichiometry N [12]: 2

B9: Vps75 R164D (natural protein, budding yeast, UniProt P53853 1-264, looked up)
chain: B5 chain with C117K, R164D
notes: as for B7
stoichiometry N [12]: ~2

B10: Vps75 K169E (natural protein, budding yeast, UniProt P53853 1-264, looked up)
chain: B5 chain with C117K, K169E
notes: as for B7
stoichiometry N [12]: ~2

B11: Vps75 K78C (natural protein, budding yeast, UniProt P53853 1-264, looked up)
chain: B5 chain with K78C, C117K
modifications: disulphide between cysteine 78 of opposing dimers after oxidation with Cu (II) phenanthroline
notes: as for B7
stoichiometry N [15]: 4

binding result (Rtt109): binds
B12: Vps75 Y35RX2 (natural protein, budding yeast, UniProt P53853 1-264, looked up)
chain: B5 chain with Y35C, C117K
modifications: 3,4-Bis-MTSL crosslinking spin label (RX2) joining cysteine 35 of the two chains of the dimer; deuterated protein
notes: Vps75 of budding yeast, open reading frame, unique cysteine at position 35; One spin label for each dimer; also called singly labelled Vps75 Y35RX2 dimer; not shown: His6, N-terminal, cleaved
binding result [16]: binds
